From PMC4056859 come the findings set out here.

In experiment [1] the target is ht-ADH single-tryptophan variant W87in (W49F:W167Y) (Bacillus stearothermophilus). The experiment can be described thus: SEC.
The target in experiment [2] is ht-ADH single-tryptophan variant W167in (W49F:W87F) (Bacillus stearothermophilus). The experiment can be described thus: SEC.

Substance “ht-ADH single-tryptophan variant W87in (W49F:W167Y) (enzyme)” displayed a stoichiometry N in experiment [1] of 4.

For “ht-ADH single-tryptophan variant W167in (W49F:W87F) (enzyme)”, the stoichiometry N in experiment [2] came to 4.
